Results published in paper PMC9860126, “Mechanistic insights into the nickel-dependent allosteric response of the Helicobacter pylori NikR transcription factor”.
Where a chain is given by its changes, count along the chain named.

T1: HpNikR WT (Helicobacter pylori G27 (from vector …, UniProt A1YSQ9 1-148))
T1 sequence: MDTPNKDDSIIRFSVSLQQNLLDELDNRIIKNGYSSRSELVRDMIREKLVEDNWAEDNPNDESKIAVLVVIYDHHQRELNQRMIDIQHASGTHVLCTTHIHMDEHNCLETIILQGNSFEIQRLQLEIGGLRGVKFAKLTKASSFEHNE

B1: ureA promoter 32 bp (FA) (dsDNA)
DNA 1: ATATAACACTAATTCATTTTAAATAATAATTA
DNA 2: TAATTATTATTTAAAATGAATTAGTGTTATAT
B2: ureA-perf promoter 32 bp (dsDNA)
DNA 1: B1 DNA 1 with A6T, C7T, C9T
DNA 2: B1 DNA 2 with G24A, G26A, T27A

Tests used:
Assay in all cases: fluorescence anisotropy; apo (no Ni); FA: 5 nM DNA, 20 mM Tris pH 7.6, 100 mM NaCl, 3 mM MgSO4, temperature not stated (Ni loading 1.2 eq NiSO4 per monomer at RT). EMSA: 20 mM Tris pH 7.5, 100 mM KCl, 3 mM MgCl2, 0.1% IGEPAL, 5% glycerol, 0.1 mg/ml herring sperm DNA, RT; gel with 800 uM NiSO4 at 4 C
[1] = target: HpNikR E62A (Helicobacter pylori G27, UniProt A1YSQ9 1-148, E62A); details: protein: recombinant; tags: none stated; chain copies: 4; label: fluorescein on internal thymine (T14 of strand 1); blunt
[2] = target: HpNikR N32A (Helicobacter pylori G27, UniProt A1YSQ9 1-148, N32A); details: protein: recombinant; tags: none stated; chain copies: 4; label: fluorescein on internal thymine (T14 of strand 1); blunt
[3] = target: HpNikR W54A (Helicobacter pylori G27, UniProt A1YSQ9 1-148, W54A); details: protein: recombinant; tags: none stated; chain copies: 4; label: fluorescein on internal thymine (T14 of strand 1); blunt
[4] = target: HpNikR K48A (Helicobacter pylori G27, UniProt A1YSQ9 1-148, K48A); details: protein: recombinant; tags: none stated; chain copies: 4; label: fluorescein on internal thymine (T14 of strand 1); blunt
[5] = target: HpNikR T92A (Helicobacter pylori G27, UniProt A1YSQ9 1-148, T92A); details: protein: recombinant; tags: none stated; chain copies: 4; label: fluorescein on internal thymine (T14 of strand 1); blunt
[6] = target: HpNikR I127A (Helicobacter pylori G27, UniProt A1YSQ9 1-148, I127A); details: protein: recombinant; tags: none stated; chain copies: 4; label: fluorescein on internal thymine (T14 of strand 1); blunt
[7] = target: HpNikR Q81A (Helicobacter pylori G27, UniProt A1YSQ9 1-148, Q81A); details: protein: recombinant; tags: none stated; chain copies: 4; label: fluorescein on internal thymine (T14 of strand 1); blunt
[8] = target: T1, HpNikR WT; details: protein: recombinant; tags: none stated (untagged purification); chain copies: 4; label: fluorescein on internal thymine (T14 of strand 1); blunt
[9] = target: HpNikR K31A (Helicobacter pylori G27, UniProt A1YSQ9 1-148, K31A); details: protein: recombinant; tags: none stated; chain copies: 4; label: fluorescein on internal thymine (T14 of strand 1); blunt
[10] = target: HpNikR K134A (Helicobacter pylori G27, UniProt A1YSQ9 1-148, K134A); details: protein: recombinant; tags: none stated; chain copies: 4; label: fluorescein on internal thymine (T14 of strand 1); blunt

| Binder | Kd [1] [µM] | Kd [2] [nM] | Kd [3] [µM] | binding result [4] | Kd [5] [nM] | Kd [6] [µM] | Kd [7] [nM] | Kd [8] [µM] | Kd [9] [nM] | Kd [10] [nM] |
| --- | --- | --- | --- | --- | --- | --- | --- | --- | --- | --- |
| B1 | 2.6 ± 0.2 | 1600 ± 400 | 6.1 ± 1 | no binding | 2200 ± 200 | 4 ± 1.3 | 2000 ± 500 | 4.9 ± 1.7 | 2300 ± 500 | 1700 ± 700 |
| B2 | 4.2 ± 0.7 | 1900 ± 700 | 3.7 ± 0.2 | no binding | 2500 ± 400 | 4 ± 0.3 | 1600 ± 600 | 4.1 ± 1.1 | 1300 ± 200 | 1000 ± 300 |
